Measurements reported in patent publication US20140193415A1 (Hoffmann-La Roche, published 2014).
One block for each binder: values may come before it.

Molecular target: human EGFR on human tumor cells (A549, BxPC3) (human, UniProt P00533 25-1200)
Test: cell-based or functional assay

Inhibition of EGFR phosphorylation (IC50) A549: 0.23 nM
Inhibition of EGFR phosphorylation (IC50) BxPC3: 0.82 nM
B1: OA-F13B5-scFab-GA201 (bispecific antibody, human IgG1, kappa)
heavy 1: not shown
heavy 2: not shown
light: DIQMTQSPSSLSASVGDRVTITCRASQGINNYLNWYQQKPGKAPKRLIYNTNNLQTGVPSRFSGSGSGTEFTLTISSLQPEDFATYYCLQHNSFPTFGQGTKLEIKRTVAAPSVFIFPPSDEQLKSGTASVVCLLNNFYPREAKVQWKVDNALQSGNSQESVTEQDSKDSTYSLSSTLTLSKADYEKHKVYACEVTHQGLSSPVTKSFNRGEC

Inhibition of EGFR phosphorylation (IC50) A549: 0.19 nM
Inhibition of EGFR phosphorylation (IC50) BxPC3: 0.47 nM
B2: OA-L31D11-scFab-GA201 (bispecific antibody, human IgG1, kappa)
heavy 1: not shown
heavy 2: not shown
light: B1 light

Inhibition of EGFR phosphorylation (IC50) A549: 0.23 nM
Inhibition of EGFR phosphorylation (IC50) BxPC3: 1.67 nM
B3: OA-Ak18-scFab-GA201 (bispecific antibody, V domains shown)
VH 1: QVELVESGGGVVQPGRSQRLSCAASGFTFSSYGMHWVRQAPGKGLEWVAIIWFDGSSTYYADSVRGRFTISRDNSKNTLYLQMNSLRAEDTAVYFCARELGRRYFDLWGRGTLVSVSS
VL 1: EIVLTQSPATLSLSPGERATLSCRASQSVSSYLAWYQQKPGQAPRLLIYDASKRATGIPARFSGSGSGTDFTLTISSLEPEDFAVYYCQQRSKWPPWTFGQGTKVESK
VH 2: QVQLVQSGAEVKKPGSSVKVSCKASGFTFTDYKIHWVRQAPGQGLEWMGYFNPNSGYSTYAQKFQGRVTITADKSTSTAYMELSSLRSEDTAVYYCARLSPGGYYVMDAWGQGTTVTVSS
VL 2: DIQMTQSPSSLSASVGDRVTITCRASQGINNYLNWYQQKPGKAPKRLIYNTNNLQTGVPSRFSGSGSGTEFTLTISSLQPEDFATYYCLQHNSFPTFGQGTKLEIKRT
